This note sets out measurements from patent US20220064329A1 (Novo Nordisk, published 2022).

Substitutions are numbered along the chain they refer to.

Common to all, as to assay: SPR, Biacore T200, 25 C; FVII(a) variant captured on anti-Gla Ab 4F6, mAb0842(OA) injected
For orientation: In SPR one partner is held on a chip, and binding of the other changes the refractive index at the surface.

One test concerns the target T1, FVII(a) variant I186A (human, UniProt P08709 61-466).
T1 construct: hFVII alanine variant in cell culture supernatant
T1 sequence: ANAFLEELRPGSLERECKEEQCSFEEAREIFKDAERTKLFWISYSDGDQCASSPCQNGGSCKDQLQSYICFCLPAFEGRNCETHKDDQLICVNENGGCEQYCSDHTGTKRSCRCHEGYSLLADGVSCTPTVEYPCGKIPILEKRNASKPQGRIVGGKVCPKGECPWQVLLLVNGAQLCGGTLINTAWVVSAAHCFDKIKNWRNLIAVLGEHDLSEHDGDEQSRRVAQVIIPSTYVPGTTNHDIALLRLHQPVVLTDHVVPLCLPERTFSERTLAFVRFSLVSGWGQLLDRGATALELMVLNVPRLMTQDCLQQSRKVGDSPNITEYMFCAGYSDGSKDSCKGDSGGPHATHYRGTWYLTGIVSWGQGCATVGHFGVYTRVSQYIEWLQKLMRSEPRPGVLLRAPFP
As to the method:
(§1) The running buffer was prepared by diluting 10-fold the 10×HBS-P buffer (supplied by GE Healthcare) and supplemented with 1 mg/ml BSA and 5 mM CaCl2 to give 10 mM HEPES, 150 mM NaCl, 0.05% v/v Polysorbate 20, pH 7.4, 5 mM CaCl2, 1 mg/ml bovine serum albumin (BSA). […] Regeneration of the chip was achieved using 10 mM HEPES, 150 mM NaCl, 20 mM EDTA, 0.05 v/v Polysorbate 20, pH 7.4. Binding data were analysed according to a 1:1 Kinetic model and steady state analysis using BiaEvaluation 4.1 supplied by the manufacturer (Biacore AB, Uppsala, Sweden). Wherever possible, ka, kd and KD values from 1:1 kinetic fitting model are reported. […] An amino acid residue is considered a hot-spot residue if substitution of that amino acid residue with alanine results in an affinity reduction of ten (10) fold or more relative to the wild type.

Another test concerns the target T2, FVII(a) variant T185A (human, UniProt P08709 61-466).
T2 construct: hFVII alanine variant in cell culture supernatant
T2 sequence: T1 sequence with T185A, A186I
As to the method: as §1

The target in another test is T3, FVII(a) variant L120A (human, UniProt P08709 61-466).
T3 construct: hFVII alanine variant in cell culture supernatant
T3 sequence: T1 sequence with L120A, A186I
As to the method:
as §1

The target of another test is T4, FVII(a) variant G117A (human, UniProt P08709 61-466).
T4 construct: hFVII alanine variant in cell culture supernatant
T4 sequence: T1 sequence with G117A, A186I
As to the method:
as §1

For a further test, the target named is T5, FVII(a) variant T130A (human, UniProt P08709 61-466).
T5 construct: hFVII alanine variant in cell culture supernatant
T5 sequence: T1 sequence with T130A, A186I
The method, then:
as §1

The Kd is the concentration at which binding is half-saturated.

B1: mAb0842(OA) (antibody, human IgG4 S228P, kappa)
heavy: QVQLQESGPGLVKPSQTLSLTCTVSGYSISSDSAWSWIRQPPGKGLEWIGYIQYSGSTNYNPSLKSRVTISRDTSKNQFSLKLSSVTAADTAVYYCARSVNYYGNSFAVGYWGQGTLVTVSSASTKGPSVFPLAPCSRSTSESTAALGCLVKDYFPEPVTVSWNSGALTSGVHTFPAVLQSSGLYSLSSVVTVPSSSLGTKTYTCNVDHKPSNTKVDKRVESKYGPPCPPCPAPEFLGGPSVFLFPPKPKDTLMISRTPEVTCVVVDVSQEDPEVQFNWYVDGVEVHNAKTKPREEQFNSTYRVVSVLTVLHQDWLNGKEYKCKVSNKGLPSSIEKTISKAKGQPREPQVYTLPPSQEEMTKNQVSLSCAVKGFYPSDIAVEWESNGQPENNYKTTPPVLDSDGSFFLVSRLTVDKSRWQEGNVFSCSVMHEALHNHYTQKSLSLSLGK
light: EIVLTQSPATLSLSPGERATLSCRASQGISDYLHWYQQKPGEAPRLLIKYTSQPATGIPARFSGSGSGTDFTLTISSLEPEDFAVYYCQNGHSFPLTFGQGTKLEIKRTVAAPSVFIFPPSDEQLKSGTASVVCLLNNFYPREAKVQWKVDNALQSGNSQESVTEQDSKDSTYSLSSTLTLSKADYEKHKVYACEVTHQGLSSPVTKSFNRGEC
chain: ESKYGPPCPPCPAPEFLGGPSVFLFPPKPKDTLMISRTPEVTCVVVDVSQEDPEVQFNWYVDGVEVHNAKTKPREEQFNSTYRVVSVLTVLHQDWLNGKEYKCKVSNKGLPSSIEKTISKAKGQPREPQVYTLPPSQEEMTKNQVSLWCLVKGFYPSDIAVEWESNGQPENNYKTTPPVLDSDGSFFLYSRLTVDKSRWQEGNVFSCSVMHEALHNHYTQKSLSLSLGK
notes: also called monovalent humanized 11F2 antibody; one-armed anti-FVII(a) antibody
For the molecule B1, the dissociation constant Kd with FVII(a) variant I186A is 0.39 nM; in the test with FVII(a) variant T185A, 1.01 nM; with FVII(a) variant L120A, 0.6 nM; with FVII(a) variant G117A, 0.31 nM; in the test with FVII(a) variant T130A, 32.1 nM.
